Source: publication PMC12151148 (2024)

T1: NuMA (1886–1912) (human, UniProt Q14980-2 1886-1912)
T1 chain: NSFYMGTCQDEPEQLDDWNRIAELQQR

T2: AGS3-TPR (1–405) (mouse)
T2 chain: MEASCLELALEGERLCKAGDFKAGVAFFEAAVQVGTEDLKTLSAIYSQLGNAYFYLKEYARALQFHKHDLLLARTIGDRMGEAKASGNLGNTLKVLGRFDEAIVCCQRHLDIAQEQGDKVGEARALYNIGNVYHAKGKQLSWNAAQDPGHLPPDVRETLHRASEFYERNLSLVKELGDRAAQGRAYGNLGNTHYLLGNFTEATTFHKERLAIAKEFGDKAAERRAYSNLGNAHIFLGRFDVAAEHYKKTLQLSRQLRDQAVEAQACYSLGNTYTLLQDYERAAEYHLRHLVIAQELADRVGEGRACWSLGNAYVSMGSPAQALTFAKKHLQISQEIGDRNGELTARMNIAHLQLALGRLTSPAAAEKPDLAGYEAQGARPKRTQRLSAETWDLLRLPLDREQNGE

T3: AGS3-L (−23–405) (mouse)
T3 chain: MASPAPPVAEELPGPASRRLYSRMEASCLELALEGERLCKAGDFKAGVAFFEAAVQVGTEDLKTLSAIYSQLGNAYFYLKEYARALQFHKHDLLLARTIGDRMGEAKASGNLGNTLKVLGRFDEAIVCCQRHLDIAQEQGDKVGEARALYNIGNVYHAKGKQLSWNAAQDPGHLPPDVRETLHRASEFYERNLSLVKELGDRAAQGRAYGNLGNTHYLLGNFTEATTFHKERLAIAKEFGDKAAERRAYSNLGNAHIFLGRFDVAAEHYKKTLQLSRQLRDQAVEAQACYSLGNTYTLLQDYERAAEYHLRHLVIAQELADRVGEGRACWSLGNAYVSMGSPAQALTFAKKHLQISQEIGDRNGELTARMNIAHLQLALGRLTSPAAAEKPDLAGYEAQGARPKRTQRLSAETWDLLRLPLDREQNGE

T4: FL-LGN-4E (mouse, UniProt Q8VDU0)
T4 sequence (Q8VDU0 whole entry, looked up): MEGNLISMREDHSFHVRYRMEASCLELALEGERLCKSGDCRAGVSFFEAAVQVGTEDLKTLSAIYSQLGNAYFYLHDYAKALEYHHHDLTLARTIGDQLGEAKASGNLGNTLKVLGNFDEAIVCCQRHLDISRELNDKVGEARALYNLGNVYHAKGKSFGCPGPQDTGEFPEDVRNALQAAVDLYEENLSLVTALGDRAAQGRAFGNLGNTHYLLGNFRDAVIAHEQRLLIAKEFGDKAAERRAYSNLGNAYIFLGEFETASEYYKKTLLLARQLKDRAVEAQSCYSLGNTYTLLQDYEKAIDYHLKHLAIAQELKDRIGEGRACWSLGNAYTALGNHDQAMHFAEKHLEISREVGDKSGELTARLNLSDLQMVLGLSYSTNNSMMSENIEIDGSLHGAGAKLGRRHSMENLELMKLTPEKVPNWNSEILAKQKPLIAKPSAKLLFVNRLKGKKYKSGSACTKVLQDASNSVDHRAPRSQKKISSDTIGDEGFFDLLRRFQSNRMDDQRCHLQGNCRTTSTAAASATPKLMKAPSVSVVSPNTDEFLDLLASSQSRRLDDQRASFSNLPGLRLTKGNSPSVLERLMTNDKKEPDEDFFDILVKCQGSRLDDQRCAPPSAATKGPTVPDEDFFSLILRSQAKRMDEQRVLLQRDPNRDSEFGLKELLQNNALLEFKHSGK

T5: FL-AGS3-4E (mouse, UniProt Q6IR34)
T5 sequence (Q6IR34 whole entry, looked up): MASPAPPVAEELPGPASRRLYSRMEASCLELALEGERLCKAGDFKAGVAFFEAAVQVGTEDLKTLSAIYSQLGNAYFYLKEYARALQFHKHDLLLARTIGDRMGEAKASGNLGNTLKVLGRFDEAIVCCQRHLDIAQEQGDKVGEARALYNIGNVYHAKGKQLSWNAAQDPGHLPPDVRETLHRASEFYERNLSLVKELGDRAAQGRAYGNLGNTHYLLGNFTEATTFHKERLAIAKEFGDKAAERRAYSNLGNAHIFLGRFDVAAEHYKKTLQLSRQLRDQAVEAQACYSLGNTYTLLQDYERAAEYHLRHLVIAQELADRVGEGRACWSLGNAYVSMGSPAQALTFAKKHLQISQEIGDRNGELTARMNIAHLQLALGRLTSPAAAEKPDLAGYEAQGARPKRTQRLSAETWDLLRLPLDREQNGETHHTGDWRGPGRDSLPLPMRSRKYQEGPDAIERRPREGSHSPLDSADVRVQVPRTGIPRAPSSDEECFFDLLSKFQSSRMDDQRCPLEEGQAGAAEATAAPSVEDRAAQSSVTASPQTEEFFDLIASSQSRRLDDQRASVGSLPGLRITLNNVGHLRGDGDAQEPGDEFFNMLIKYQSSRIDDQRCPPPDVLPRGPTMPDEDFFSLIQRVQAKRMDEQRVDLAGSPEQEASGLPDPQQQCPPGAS

T6: AGS3-GL1234 (470–631) (mouse)
T6 chain: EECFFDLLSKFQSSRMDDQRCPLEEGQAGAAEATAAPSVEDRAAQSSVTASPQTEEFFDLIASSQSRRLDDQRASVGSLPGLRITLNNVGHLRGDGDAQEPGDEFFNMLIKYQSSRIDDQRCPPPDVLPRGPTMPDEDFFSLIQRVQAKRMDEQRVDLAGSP

T7: LGN GL3 motif (mouse)
T7 chain: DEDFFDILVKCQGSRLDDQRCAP

T8: LGN-GL1234 (483–650) (mouse)
T8 chain: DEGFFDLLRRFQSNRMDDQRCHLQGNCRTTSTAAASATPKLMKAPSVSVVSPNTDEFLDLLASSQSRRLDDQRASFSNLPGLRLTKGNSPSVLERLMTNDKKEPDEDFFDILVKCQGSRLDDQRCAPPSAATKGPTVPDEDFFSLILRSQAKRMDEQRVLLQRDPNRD

T9: LGN GL4 motif (mouse)
T9 chain: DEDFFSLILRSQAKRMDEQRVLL

B1: LGN-TPR (1–409) (domain or fragment)
chain: MREDHSFHVRYRMEASCLELALEGERLCKSGDCRAGVSFFEAAVQVGTEDLKTLSAIYSQLGNAYFYLHDYAKALEYHHHDLTLARTIGDQLGEAKASGNLGNTLKVLGNFDEAIVCCQRHLDISRELNDKVGEARALYNLGNVYHAKGKSFGCPGPQDTGEFPEDVRNALQAAVDLYEENLSLVTALGDRAAQGRAFGNLGNTHYLLGNFRDAVIAHEQRLLIAKEFGDKAAERRAYSNLGNAYIFLGEFETASEYYKKTLLLARQLKDRAVEAQSCYSLGNTYTLLQDYEKAIDYHLKHLAIAQELKDRIGEGRACWSLGNAYTALGNHDQAMHFAEKHLEISREVGDKSGELTARLNLSDLQMVLGLSYSTNNSMMSENIEIDGSLHGAGAKLGRRHSMENLELMK
B2: Insc (18–66) (domain or fragment)
chain: WGLWGAQESRRLCCVGPDRCGQALLQIGINMMALPGGRHLDSVPLQEQR
B3: Gαi3⋅GDP (natural protein)
chain: MGCTLSAEDKAAVERSKMIDRNLREDGEKAAKEVKLLLLGAGESGKSTIVKQMKIIHEDGYSEDECKQYKVVVYSNTIQSIIAIIRAMGRLKIDFGEAARADDARQLFVLAGSAEEGVMTPELAGVIKRLWRDGGVQACFSRSREYQLNDSASYYLNDLDRISQSNYIPTQQDVLRTRVKTTGIVETHFTFKDLYFKMFDVGGQRSERKKWIHCFEGVTAIIFCVALSDYDLVLAEDEEMNRMHESMKLFDSICNNKWFTETSIILFLNKKDLFEEKIKRSPLTICYPEYTGSNTYEEAAAYIQCQFEDLNRRKDTKEIYTHFTCATDTKNVQFVFDAVTDVIIKNNLKECGLY

Experiments:
Insc (18–66) = molecular target: B2; assay: ITC
NuMA (1886–1912) = molecular target: T1, NuMA (1886–1912); assay: ITC
LGN-TPR (1–409) = molecular target: B1; assay: ITC
AGS3-TPR (1–405) = molecular target: T2, AGS3-TPR (1–405); assay: ITC; AGS3-TPR premixed with NuMA (1886–1912)
AGS3-L (−23–405) = molecular target: T3, AGS3-L (−23–405); assay: ITC
FL-LGN-4E = molecular target: T4, FL-LGN-4E; assay: ITC
FL-AGS3-4E = molecular target: T5, FL-AGS3-4E; assay: ITC
AGS3-GL1234 (470–631) = molecular target: T6, AGS3-GL1234 (470–631); assay: ITC
LGN GL3 motif = molecular target: T7, LGN GL3 motif; assay: ITC
LGN-GL1234 (483–650) = molecular target: T8, LGN-GL1234 (483–650); assay: ITC
LGN GL4 motif = molecular target: T9, LGN GL4 motif; assay: ITC

In the case of B1, the Kd (Insc (18–66)) is reported as 980 nM and the Kd (NuMA (1886–1912)) is reported as 630 nM.

Work on B2 yielded a Kd (LGN-TPR (1–409)) of 980 nM, a Kd (AGS3-TPR (1–405)) of 12700 nM and a Kd (AGS3-L (−23–405)) of 870 nM. For the same binder, the Kd (FL-LGN-4E) was 580 nM and the Kd (FL-AGS3-4E) was 290 nM.

Work on B3 yielded a Kd (AGS3-GL1234 (470–631)) of 280 nM, a Kd (LGN GL3 motif) of 42 nM and a Kd (LGN-GL1234 (483–650)) of 260 nM. It also gave a Kd (LGN GL4 motif) of 190 nM.
